Data as given in patent publication US7183387 (Genentech, dated 2007).

T1: human FcγRIIA-R131 α subunit extracellular domain-His6-GST fusion (human, UniProt P12318 34-217)
T1 construct: ECD-6His-GST fusion made in 293 cells; also called FcγRIIA-Arg131; not shown: glutathione S transferase (GST)
T1 sequence: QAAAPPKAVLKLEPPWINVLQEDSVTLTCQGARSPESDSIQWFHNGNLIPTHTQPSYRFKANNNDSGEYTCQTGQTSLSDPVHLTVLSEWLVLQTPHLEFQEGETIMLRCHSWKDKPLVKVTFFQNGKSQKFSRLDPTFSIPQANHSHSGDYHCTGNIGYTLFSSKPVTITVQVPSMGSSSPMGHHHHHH


Tests used:
[1] = biological target: T2, human FcγRIIIA-V158 α subunit extracellular domain-His6-GST fusion (human, UniProt P08637 17-208); experiment: ELISA, IgG monomer, receptor coated
T2 construct: ECD-6His-GST fusion made in 293 cells; also called FcγRIIIA-Val158; not shown: glutathione S transferase (GST)
T2 sequence (P08637 other isoform, or with tags, fused parts or gaps, form in doubt): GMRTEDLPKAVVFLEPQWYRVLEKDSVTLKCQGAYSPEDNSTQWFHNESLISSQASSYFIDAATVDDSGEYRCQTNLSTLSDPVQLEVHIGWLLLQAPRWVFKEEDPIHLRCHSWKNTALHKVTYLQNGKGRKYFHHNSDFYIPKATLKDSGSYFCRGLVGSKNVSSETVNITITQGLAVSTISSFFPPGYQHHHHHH

[2] = biological target: T2, human FcγRIIIA-V158 α subunit …; experiment: ELISA, IgG complex, receptor coated
[3] = biological target: T3, human FcγRIIIA-F158 α subunit extracellular domain-His6-GST fusion (human, UniProt P08637 17-208); experiment: ELISA, IgG complex, receptor coated
T3 construct: ECD-6His-GST fusion made in 293 cells; also called FcγRIIIA-Phe158; not shown: glutathione S transferase (GST)
T3 sequence (P08637 other isoform, or with tags, fused parts or gaps, form in doubt): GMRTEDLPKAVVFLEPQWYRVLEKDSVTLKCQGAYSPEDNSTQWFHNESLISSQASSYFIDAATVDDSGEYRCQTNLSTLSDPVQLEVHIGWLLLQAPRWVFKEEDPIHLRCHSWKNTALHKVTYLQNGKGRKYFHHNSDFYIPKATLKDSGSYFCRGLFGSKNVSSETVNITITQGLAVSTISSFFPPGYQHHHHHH

[4] = biological target: T1, human FcγRIIA-R131 α subunit …; experiment: ELISA, IgG complex, receptor coated

Binder	ratio of binding, variant/native IgG1 (mean) [1] [ratio]	ratio of binding, variant/native IgG1 (mean) [2] [ratio]	ratio of binding, variant/native IgG1 (mean) [3] [ratio]	ratio of binding, variant/native IgG1 (mean) [4] [ratio]
anti-IgE E27 IgG1 variant K334(353)A (antibody, Fc variant of E27; also called IG2 55; G55) heavy: not shown light: DIQLTQSPSSLSASVGDRVTITCRASKPVDGEGDSYLNWYQQKPGKAPKLLIYAASYLESGVPSRFSGSGSGTDFTLTISSLQPEDFATYYCQQSHEDPYTFGQGTKVEIKRTVAAPSVFIFPPSDEQLKSGTASVVCLLNNFYPREAKVQWKVDNALQSGNSQESVTEQDSKDSTYSLSSTLTLSKADYEKHKVYACEVTHQGLSSPVTKSFNRGEC	1.6	1.07	1.39	1.01
anti-IgE E27 IgG1 variant E333(352)N (antibody, Fc variant of E27; also called Glu333Asn) heavy: not shown light: DIQLTQSPSSLSASVGDRVTITCRASKPVDGEGDSYLNWYQQKPGKAPKLLIYAASYLESGVPSRFSGSGSGTDFTLTISSLQPEDFATYYCQQSHEDPYTFGQGTKVEIKRTVAAPSVFIFPPSDEQLKSGTASVVCLLNNFYPREAKVQWKVDNALQSGNSQESVTEQDSKDSTYSLSSTLTLSKADYEKHKVYACEVTHQGLSSPVTKSFNRGEC	0.56	0.64	0.56	0.59
anti-IgE E27 IgG1 variant R292(309)Q (antibody, Fc variant of E27; also called IG2 82) heavy: not shown light: DIQLTQSPSSLSASVGDRVTITCRASKPVDGEGDSYLNWYQQKPGKAPKLLIYAASYLESGVPSRFSGSGSGTDFTLTISSLQPEDFATYYCQQSHEDPYTFGQGTKVEIKRTVAAPSVFIFPPSDEQLKSGTASVVCLLNNFYPREAKVQWKVDNALQSGNSQESVTEQDSKDSTYSLSSTLTLSKADYEKHKVYACEVTHQGLSSPVTKSFNRGEC	0.56		0.45	0.47
anti-IgE E27 IgG1 variant E333(352)S (antibody, Fc variant of E27; also called IG2 143) heavy: not shown light: DIQLTQSPSSLSASVGDRVTITCRASKPVDGEGDSYLNWYQQKPGKAPKLLIYAASYLESGVPSRFSGSGSGTDFTLTISSLQPEDFATYYCQQSHEDPYTFGQGTKVEIKRTVAAPSVFIFPPSDEQLKSGTASVVCLLNNFYPREAKVQWKVDNALQSGNSQESVTEQDSKDSTYSLSSTLTLSKADYEKHKVYACEVTHQGLSSPVTKSFNRGEC	1.07	0.99	0.94	
anti-IgE E27 IgG1 variant S298(317)A/E333(352)A/K334(353)A (antibody, Fc variant of E27; also called IG2 110; Ser298Ala/Glu333Ala/Lys334Ala) heavy: EVQLVESGGGLVQPGGSLRLSCAVSGYSITSGYSWNWIRQAPGKGLEWVASIKYSGETKYNPSVKGRITISRDDSKNTFYLQMNSLRAEDTAVYYCARGSHYFGHWHFAVWGQGTLVTVSSASTKGPSVFPLAPSSKSTSGGTAALGCLVKDYFPEPVTVSWNSGALTSGVHTFPAVLQSSGLYSLSSVVTVPSSSLGTQTYICNVNHKPSNTKVDKKVEPKSCDKTHTCPPCPAPELLGGPSVFLFPPKPKDTLMISRTPEVTCVVVDVSHEDPEVKFNWYVDGVEVHNAKTKPREEQYNATYRVVSVLTVLHQDWLNGKEYKCKVSNKALPAPIAATISKAKGQPREPQVYTLPPSREEMTKNQVSLTCLVKGFYPSDIAVEWESNGQPENNYKTTPPVLDSDGSFFLYSKLTVDKSRWQQGNVFSCSVMHEALHNHYTQKSLSLSPGK light: DIQLTQSPSSLSASVGDRVTITCRASKPVDGEGDSYLNWYQQKPGKAPKLLIYAASYLESGVPSRFSGSGSGTDFTLTISSLQPEDFATYYCQQSHEDPYTFGQGTKVEIKRTVAAPSVFIFPPSDEQLKSGTASVVCLLNNFYPREAKVQWKVDNALQSGNSQESVTEQDSKDSTYSLSSTLTLSKADYEKHKVYACEVTHQGLSSPVTKSFNRGEC		1.19	1.66	0.35
anti-IgE E27 IgG1 variant D265(278)A (antibody, Fc variant of E27; also called IG2 14; G14) heavy: not shown light: DIQLTQSPSSLSASVGDRVTITCRASKPVDGEGDSYLNWYQQKPGKAPKLLIYAASYLESGVPSRFSGSGSGTDFTLTISSLQPEDFATYYCQQSHEDPYTFGQGTKVEIKRTVAAPSVFIFPPSDEQLKSGTASVVCLLNNFYPREAKVQWKVDNALQSGNSQESVTEQDSKDSTYSLSSTLTLSKADYEKHKVYACEVTHQGLSSPVTKSFNRGEC		0.01	0.09	0.07

Now from value to binder:

ratio of binding, variant/native IgG1 (mean) [1] [ratio]	ratio of binding, variant/native IgG1 (mean) [2] [ratio]	ratio of binding, variant/native IgG1 (mean) [3] [ratio]	ratio of binding, variant/native IgG1 (mean) [4] [ratio]	Binder
1.7	1	1.26		anti-IgE E27 IgG1 variant E333(352)D (antibody, Fc variant of E27; also called Glu333Asp) heavy: not shown light: DIQLTQSPSSLSASVGDRVTITCRASKPVDGEGDSYLNWYQQKPGKAPKLLIYAASYLESGVPSRFSGSGSGTDFTLTISSLQPEDFATYYCQQSHEDPYTFGQGTKVEIKRTVAAPSVFIFPPSDEQLKSGTASVVCLLNNFYPREAKVQWKVDNALQSGNSQESVTEQDSKDSTYSLSSTLTLSKADYEKHKVYACEVTHQGLSSPVTKSFNRGEC
0.39	0.88	0.33		anti-IgE E27 IgG1 variant S298(317)V (antibody, Fc variant of E27; also called IG2 218) heavy: not shown light: DIQLTQSPSSLSASVGDRVTITCRASKPVDGEGDSYLNWYQQKPGKAPKLLIYAASYLESGVPSRFSGSGSGTDFTLTISSLQPEDFATYYCQQSHEDPYTFGQGTKVEIKRTVAAPSVFIFPPSDEQLKSGTASVVCLLNNFYPREAKVQWKVDNALQSGNSQESVTEQDSKDSTYSLSSTLTLSKADYEKHKVYACEVTHQGLSSPVTKSFNRGEC
1.29	1.1	1.27	0.92	anti-IgE E27 IgG1 variant E333(352)A (antibody, Fc variant of E27; also called IG2 54; G54) heavy: not shown light: DIQLTQSPSSLSASVGDRVTITCRASKPVDGEGDSYLNWYQQKPGKAPKLLIYAASYLESGVPSRFSGSGSGTDFTLTISSLQPEDFATYYCQQSHEDPYTFGQGTKVEIKRTVAAPSVFIFPPSDEQLKSGTASVVCLLNNFYPREAKVQWKVDNALQSGNSQESVTEQDSKDSTYSLSSTLTLSKADYEKHKVYACEVTHQGLSSPVTKSFNRGEC
0.97	1	0.99	0.85	anti-IgE E27 IgG1 variant E293(310)Q (antibody, Fc variant of E27) heavy: not shown light: DIQLTQSPSSLSASVGDRVTITCRASKPVDGEGDSYLNWYQQKPGKAPKLLIYAASYLESGVPSRFSGSGSGTDFTLTISSLQPEDFATYYCQQSHEDPYTFGQGTKVEIKRTVAAPSVFIFPPSDEQLKSGTASVVCLLNNFYPREAKVQWKVDNALQSGNSQESVTEQDSKDSTYSLSSTLTLSKADYEKHKVYACEVTHQGLSSPVTKSFNRGEC
0.81	0.88	0.85		anti-IgE E27 IgG1 variant E333(352)K (antibody, Fc variant of E27) heavy: not shown light: DIQLTQSPSSLSASVGDRVTITCRASKPVDGEGDSYLNWYQQKPGKAPKLLIYAASYLESGVPSRFSGSGSGTDFTLTISSLQPEDFATYYCQQSHEDPYTFGQGTKVEIKRTVAAPSVFIFPPSDEQLKSGTASVVCLLNNFYPREAKVQWKVDNALQSGNSQESVTEQDSKDSTYSLSSTLTLSKADYEKHKVYACEVTHQGLSSPVTKSFNRGEC
	1.07	1.13	0.51	anti-IgE E27 IgG1 variant K334(353)D (antibody, Fc variant of E27; also called IG2 140) heavy: not shown light: DIQLTQSPSSLSASVGDRVTITCRASKPVDGEGDSYLNWYQQKPGKAPKLLIYAASYLESGVPSRFSGSGSGTDFTLTISSLQPEDFATYYCQQSHEDPYTFGQGTKVEIKRTVAAPSVFIFPPSDEQLKSGTASVVCLLNNFYPREAKVQWKVDNALQSGNSQESVTEQDSKDSTYSLSSTLTLSKADYEKHKVYACEVTHQGLSSPVTKSFNRGEC
0.91		0.88	0.54	anti-IgE E27 IgG1 variant R292(309)N (antibody, Fc variant of E27; also called IG2 83) heavy: not shown light: DIQLTQSPSSLSASVGDRVTITCRASKPVDGEGDSYLNWYQQKPGKAPKLLIYAASYLESGVPSRFSGSGSGTDFTLTISSLQPEDFATYYCQQSHEDPYTFGQGTKVEIKRTVAAPSVFIFPPSDEQLKSGTASVVCLLNNFYPREAKVQWKVDNALQSGNSQESVTEQDSKDSTYSLSSTLTLSKADYEKHKVYACEVTHQGLSSPVTKSFNRGEC
1	1.05	1.1	0.7	anti-IgE E27 IgG1 variant E333(352)Q (antibody, Fc variant of E27) heavy: not shown light: DIQLTQSPSSLSASVGDRVTITCRASKPVDGEGDSYLNWYQQKPGKAPKLLIYAASYLESGVPSRFSGSGSGTDFTLTISSLQPEDFATYYCQQSHEDPYTFGQGTKVEIKRTVAAPSVFIFPPSDEQLKSGTASVVCLLNNFYPREAKVQWKVDNALQSGNSQESVTEQDSKDSTYSLSSTLTLSKADYEKHKVYACEVTHQGLSSPVTKSFNRGEC
